In US20190248887A1 one finds EC50 data, which are given here for 2 substances.

The target of this assay is synthetic peptide representing amino acids 24 through 39 of FXYD5 (Seq ID No. 1), coupled to maleimide activated BSA (Homo sapiens). The assay is described as follows: chemiluminescent ELISA, BSA-coupled peptide 24-39 coated, streptavidin-HRP detection; printed as relative binding affinity. (ELISA stands for enzyme-linked immunosorbent assay.)

What is called EC50 is the concentration giving half of the maximal effect. Substance “L15-linker-biotin conjugate (goat polyclonal anti-FXYD5 L15, sc-30603, coupled via SM(PEG)24 to biotin) (antibody)” registered an EC50 of 38.2 nM.
“N20-linker-biotin conjugate (goat polyclonal anti-FXYD5 N20, sc-30602, coupled via SM(PEG)24 to biotin) (antibody)”: the EC50 is 3.75 nM.
